Bridges are numbered along the chain shown (N, C = ends).
B1: cross-linked cyclic peptide of Example 1 (N-terminal PEG4-modified, C-terminal amidated …, the two outer cysteine residues linked as in formula CHEM-US-00008) (peptide)
peptide: GPDCAYHRGELVWCTFH
modifications: N-terminal H2N-PEG4; C-terminal amide; position 4 built as homoserine (Hse), its side-chain hydroxyl chlorinated and reacted with Cys 14, so that the two outer cysteine positions (4 and 14) are joined by the linker of drawing CHEM-US-00008 instead of a disulfide

Key:
[1] = target: human serum-derived γ-globulin (Sigma-Aldrich); test: DBC on peptide-immobilized column, 0 NaOH wash cycles
[2] = target: human serum-derived γ-globulin (Sigma-Aldrich); test: DBC on peptide-immobilized column after 10 wash cycles with 0.1 M NaOH
[3] = target: human serum-derived γ-globulin (Sigma-Aldrich); test: column chromatography, peptide immobilized on 1 mL NHS-activated column, 1 mg/mL human γ-globulin at 1 mL/min
[4] = target: human serum-derived γ-globulin (Sigma-Aldrich); test: DBC on peptide-immobilized column, 0 NaOH wash cycles (reference)
human IgG = test: SPR (BIAcore T200), human IgG immobilized on chip, peptide injected at 15.6-1000 nM
[5] = target: human serum-derived γ-globulin (Sigma-Aldrich); test: DBC on peptide-immobilized column after 1 wash cycle with 0.1 M NaOH
[6] = target: human serum-derived γ-globulin (Sigma-Aldrich); test: DBC on peptide-immobilized column after 5 wash cycles with 0.1 M NaOH
[7] = target: human serum-derived γ-globulin (Sigma-Aldrich); test: DBC on peptide-immobilized column after 2 wash cycles with 0.1 M NaOH

Binder	DBC 10% [1]	DBC 10% [2]	DBC 10% (% NaOH wash cycle 0) [2]	DBC (dynamic binding capacity, 10% breakthrough) [3]	DBC 10% (% NaOH wash cycle 0) [4]	Kd (human IgG)	koff (human IgG)	kon (human IgG)	DBC 10% [5]	DBC 10% (% NaOH wash cycle 0) [5]	DBC 10% [6]	DBC 10% (% NaOH wash cycle 0) [6]	DBC 10% [7]	DBC 10% (% NaOH wash cycle 0) [7]
B1	9.4 mg/mL	8.9 mg/mL	94.7%	9.4 mg/mL-column	100%	340 nM	0.22 s⁻¹	650000 M⁻¹ s⁻¹	9.5 mg/mL	101%	9.2 mg/mL	97.9%	9.4 mg/mL	100%
{NH2‑PEG4}-GPDCAYHRGELVWCTFH-NH2 (linker 4-14 via 1,3‑dichloro‑2‑propanone)	–	–	–	2.3 mg/mL-column	–	4900 nM	0.005 s⁻¹	–	–	–	–	–	–	–
{NH2‑PEG4}-GPDCAYHRGELVWCTFH-NH2 (disulfide 4-14)	13.5 mg/mL	6.1 mg/mL	45.2%	–	100%	–	–	–	12.4 mg/mL	91.9%	8.9 mg/mL	65.9%	11.5 mg/mL	85.2%

— US20210380637A1
